Test results published in paper PMC2810632 (Neuron, 2009).

B1: Rat p75 neurotrophin receptor (p75^NTR), wild type, N-terminal HA tag (receptor, UniProt P07174 30-425, looked up)
chain: KETCSTGLYTHSGECCKACNLGEGVAQPCGANQTVCEPCLDNVTFSDVVSATEPCKPCTECLGLQSMSAPCVEADDAVCRCAYGYYQDEETGHCEACSVCEVGSGLVFSCQDKQNTVCEECPEGTYSDEANHVDPCLPCTVCEDTERQLRECTPWADAECEEIPGRWIPRSTPPEGSDSTAPSTQEPEVPPEQDLVPSTVADMVTTVMGSSQPVVTRGTTDNLIPVYCSILAAVVVGLVAYIAFKRWNSCKQNKQGANSRPVNQTPPPEGEKLHSDSGISVDSQSLHDQQTHTQTASGQALKGDGNLYSSLPLTKREEVEKLLNGDTWRHLAGELGYQPEHIDSFTHEACPVRALLASWGAQDSATLDALLAALRRIQRADIVESLCSESTATSPV
B2: Endogenous rat p75^NTR (receptor, UniProt P07174 30-425, looked up)
chain: B1 chain

Biological target: the molecule itself
Test: non-reducing SDS-PAGE of immunoprecipitates

Protein | stoichiometry N
B1 | 2
B2 | 2
